Target: V158 high affinity variant of CD16a (FcγRIIIa) (UniProt P08637)
Assay: HTRF competition with IgG-d2 on HEK293 cells expressing terbium-labelled FcγRIIIa V158

EC50: 0.22 µM
Substance: human IgG1 monoclonal antibody
